± gives the uncertainty stated by the source.
Assay: amyloid nucleation score (Sup35N fusion, yeast selection) (log enrichment); library NNK2; higher = more nucleation; inactive = no reads after selection
In short: (§1)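 Peptides of 20 random codons fused to Sup35N were expressed in psi-negative yeast, induced 24 hours with 100 μM copper sulfate, then grown 7 days at 30°C on medium lacking adenine and uracil. Input and output plasmid inserts were Illumina-sequenced. Nucleation score is the DiMSum log enrichment of output over input reads, centred on the mode score of non-aggregating sequences, excluding sequences with under 100 input reads. Random libraries had three technical output replicates.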

| Substance | amyloid nucleation score |
| --- | --- |
| YYSPYN | inactive |
| YYSSLTYCMLQWYSLFWWGH | 0.658 ± 0.51 |
| YYSWFSVYSIIILHNQQFRL | inactive |
| YYVERCNGTMVRNFLGATLV | -0.968 ± 0.5 |
| YYVLWSGVGIVMDSAYDTIC | -0.017 ± 1 |
| YYVTNSGSWLDACHGLYKTG | inactive |
| YYVVLGSSM | -0.018 ± 0.42 |
| YYYIRCTAVK | -0.495 ± 0.65 |
| YYYTLLSLHHMFCVTYELSG | 5.443 ± 0.035 |

Assay: amyloid nucleation score (Sup35N fusion, yeast selection) (log enrichment); library NNK1; higher = more nucleation; inactive = no reads after selection
In short: as §1

| Substance | amyloid nucleation score |
| --- | --- |
| AAAFYWLN | -1.2 ± 1.3 |
| AAGRMIRIMVTGVRLDKDKD | -0.257 ± 1.7 |
| AAKRM | 1.11 ± 0.52 |
| AALSC | 0.844 ± 0.46 |
| AANSPELVGFSGGPKGCSRG | -0.137 ± 0.71 |
| AARELKIVTRVMHFDADREA | 0.103 ± 0.43 |
| ACDVNSCVHCMSTVKFFPRP | 4.2 ± 0.11 |
| ACETWVVAIDMVSRSPCRCC | 0.113 ± 0.97 |
| ACHRTWKWVLRLRLLMRNNL | -0.712 ± 0.8 |
| ACLATNCVSFANFASCCWGW | 7.154 ± 0.059 |
| ACMRCFGNICSLWSVKGN | 7.417 ± 0.052 |
| ACYRATNMSCRRGHKLAGGF | inactive |
| ADEVMKRRQLLINIVEYFMK | 0.2 ± 0.38 |
| ADKTGGPVTNITFLAWPWWG | 3.95 ± 0.13 |
| ADSHYSDVGGYWMNSSLCK | 1.31 ± 0.8 |
| ADTCPFCDHWTQSSNRWQEL | 0.692 ± 0.41 |
| ADVEVC | -0.005 ± 0.56 |
| AERVCTFIL | -1.25 ± 1.1 |
| AESWCAGSKIIHSIGWSKDR | 0.589 ± 0.54 |
| AFGMSLGG | 0.225 ± 0.65 |
| AFRRNSPVSWSRR | 0.37 ± 0.35 |
| AFSSVEFRLDVNVFPEWVVL | 3.9 ± 0.12 |
| AGAVLLNVMLCARLQRSEYY | 2.17 ± 0.14 |

| Substance | amyloid nucleation score |
| --- | --- |
| AGKHLGNNIRYILVYGESFR | -1.09 ± 0.85 |
| AGMDVDSLYNRYGYGLEVG | -0.512 ± 0.81 |
| AGMTFRFLHEVSSSQSN | 3.06 ± 0.13 |
| AGRSWSCMLVTVWSRTRVPL | 0.351 ± 0.6 |
| AGRTILKIILQVLALLAPYK | -0.309 ± 1.4 |
| AGSLWFIWGLLSALN | -0.893 ± 0.92 |
| AGVIDT | 0.171 ± 0.79 |
| AGYVWAKSSKDVKFYVLDM | 2.85 ± 0.17 |
| AHFIFCKTFTLCLLLFCKLT | 0.057 ± 0.83 |
| AHGMYAEGVTWSALVSSRCE | 2.56 ± 0.11 |
| AHSCSLV | 0.61 ± 0.7 |
| AHSGMRLL | 0.569 ± 0.75 |
| AICKRRQLRVLSQALRLSLL | 1.14 ± 0.4 |
| AIDIYGYLRFPCWLRVLFT | -1.06 ± 0.45 |
| AIFVCNH | 0.229 ± 0.5 |
| AILFLFFN | 2.66 ± 0.14 |
| AILRSAM | 0.284 ± 0.46 |
| AILVHCSVLTVA | 0.584 ± 0.66 |
| AIRMLSISCNFMVVIL | 0.837 ± 0.93 |
| AISVWMSMNGPITPDR | 0.907 ± 0.59 |
| AKVPVKGQRLRTGLPKSTHT | -1.88 ± 1.4 |
| ALCLKGSMNVEFMIRTSGFN | 0.705 ± 0.51 |
| ALLGFRSCMQASFFFFRWFI | -0.801 ± 0.89 |

| Substance | amyloid nucleation score |
| --- | --- |
| ALPREWKCMSLLFENGSGNS | inactive |
| ALRFFWDPFIDG | 0.388 ± 0.81 |
| ALRGMWNKVRSGGWCYRCTW | -0.05 ± 1.4 |
| ALRKVYCSFIHNIWACSWAI | inactive |
| AMCLV | -0.373 ± 0.88 |
| AMHNSSDGCRFDTYSVCVYW | 2.68 ± 0.21 |
| AMKVFYDMWKTACY | -0.507 ± 0.7 |
| AMLKDRNMLADYFHGVILGA | inactive |
| AMMPLVLNQVVFDVAALTNR | 7.68 ± 0.054 |
| AMNGVLVIGGV | -0.668 ± 1.7 |
| AMRLMDILCLIVCPHEYMWP | 1.54 ± 0.17 |
| AMVGLMMELAHRKLNR | 0.523 ± 0.45 |
| AMYVDQVLHQPRPLMSPRMQ | 0.515 ± 0.51 |
| ANGMEGL | 1.13 ± 0.81 |
| ANIHYL | 2.63 ± 0.12 |
| ANMHRVKAYCHIFGLSHETE | -0.775 ± 0.73 |
| ANSVRWTCMLVIIFQYRPTS | 2.5 ± 0.15 |
| APFHEGNIFRAVTFKTYPSR | -0.422 ± 0.72 |
| AQSSVKRWGGLCRNVMKDGW | 0.276 ± 0.32 |
| AQWVLMWYVRHVR | 1.49 ± 0.18 |
| ARCCWRG | -0.849 ± 1.1 |
| ARFCRGGRIVSLMRVLTQTR | -0.931 ± 1.3 |
| ARHSYN | inactive |

| Substance | amyloid nucleation score |
| --- | --- |
| ARLENVTHFRFLQTNLGYIE | 0.082 ± 0.67 |
| ARMFELRPLNRTHYSRAKRT | 0.124 ± 0.5 |
| ARMVVCHPAGFGGAWPSRWC | -0.105 ± 0.93 |
| ARTDWFLNSRSSDYAIGFPY | -0.157 ± 0.79 |
| ARTGPTSASVGGLQPVCPGD | -0.019 ± 0.55 |
| ARWCEGRYSFILNKQQKLAK | 0.662 ± 0.49 |
| ARYPRGDGVGDMSSRLIVVY | 1.26 ± 0.2 |
| ASAGPRWIWFGLGLQRCDAY | -0.141 ± 0.87 |
| ASFEKFNNVTLGCSTDSE | 0.666 ± 0.48 |
| ASFLRNVFWVIREYTLCEYV | 0.647 ± 0.19 |
| ASGFESCDTEVVGFRGVCYA | 1.42 ± 0.51 |
| ASNYGQWSCHPGRSLFVQFF | 4.56 ± 0.11 |
| ASQRSQNCCIVESIDEVLFS | 0.85 ± 0.41 |
| ASSGPAIYFNGRQRTFYYSD | 1.05 ± 0.29 |
| ASSGSVGVLNLATHTTVKWQ | 4.04 ± 0.14 |
| ASVVQVTGRGSVGMVFPCCS | -0.558 ± 0.56 |
| ASWTHVIFTYPLGKA | 0.035 ± 1 |
| ATAHCWLRQESGEFGDLWIP | 0.276 ± 0.19 |
| ATAVYMSVLMVPDLRMKAEG | 1.5 ± 0.7 |
| ATCNNI | -0.431 ± 1.4 |
| ATGARLKLCQELRSTLGMLT | -0.608 ± 0.45 |
| ATHPDSSMYNRTTSSNFMWF | -0.573 ± 0.75 |
| ATREQDFWWFDER | -1.48 ± 1.2 |

| Substance | amyloid nucleation score |
| --- | --- |
| ATSLSCKSKFPMTDVAHLHH | 0.406 ± 0.2 |
| ATTLGCQWDWKWSAFGAWLQ | -1.08 ± 1.1 |
| ATVKVPNNSIRNDFFSNDRD | -1.13 ± 1.2 |
| AVASMWPRGLALSRLVSLNA | 0.05 ± 0.47 |
| AVCQRNLFGIVRICRSKTR | 4.64 ± 0.055 |
| AVCYHGFRMATAASEVCGAS | 0.327 ± 0.38 |
| AVGKYLWASVGIAFDRQSIM | -0.837 ± 2.4 |
| AVKYRGNVMFKIRHIMLKCM | 0.023 ± 0.42 |
| AVLNQYRELKQAGSFYVSTM | 0.618 ± 0.52 |
| AVLRRYQFVYDLSYLYEDFL | -0.836 ± 0.48 |
| AVLSPGWWESLYPRRVVHSC | -0.354 ± 0.54 |
| AVNYIADFGTVDRCCITFPL | 0.645 ± 0.4 |
| AVPCSC | 0.189 ± 0.3 |
| AVQFCCWDMRTVIAS | 5.76 ± 0.066 |
| AVRGINCCKRQSWKCNLCM | 0.915 ± 0.56 |
| AVRWLHIGWSKETGRNCDCR | 0.671 ± 0.64 |
| AVTCSPPGPMQGLTFLFMAL | -1.11 ± 1 |
| AVVKAVVNGRILFYRTREVS | 0.226 ± 0.58 |
| AVVLLLNRTD | 0.282 ± 0.59 |
| AVYAAYFWGSI | -0.065 ± 0.69 |
| AVYICPYLQSGNALATDMW | 0.587 ± 1.1 |
| AWDVAS | 0.967 ± 0.6 |
| AWNTGSIARHSFSRIVSTCD | 0.182 ± 0.39 |

| Substance | amyloid nucleation score |
| --- | --- |
| AWRIIPGILAFTFEEM | -0.428 ± 0.79 |
| AYLNREFGFLFTLNFGCGFF | -0.636 ± 0.39 |
| AYLVFDGQ | -0.283 ± 0.37 |
| AYSCDLVELRVCAVSVWEEW | 1.42 ± 0.41 |
| AYTLRYTFRYKYWLRYRLAG | 0.861 ± 0.58 |
| CAQRPAVRSF | -0.075 ± 0.98 |
| CASMMPDSVSVRTKSNVT | -1.02 ± 1.3 |
| CAVLLVIGTAANEMCARRLI | -0.197 ± 1.9 |
| CAVTDVRIIIHF | 2.15 ± 0.22 |
| CCCISDHESNCDSDQSRLGF | 0.585 ± 0.36 |
| CCDDIRTQDLALRAQIP | -0.21 ± 0.32 |
| CCFMYAQIDLLNFSMDVLAR | 0.198 ± 0.29 |
| CCHYDHKSGVNSLRRKTNVW | 1.57 ± 0.43 |
| CCLEWRWLRMEDDPVNGEDV | -0.073 ± 0.43 |
| CCYDPNGLAKNKTW | -0.013 ± 0.65 |
| CDMNPSDYDPLCEVSHRIIS | 0.561 ± 0.24 |
| CDPGVKYSVSKAYRGWEYAL | -0.042 ± 1.2 |
| CDVVVSSF | -0.117 ± 0.88 |
| CDYLNGLKGYSP | -0.19 ± 0.35 |
| CECHPFHPRVLVYGRYRFNP | 0.033 ± 0.38 |
| CELPGLGVLLVGGKPMEWLN | inactive |
| CELPTRLF | -0.143 ± 0.33 |
| CESGW | -0.115 ± 1.2 |

| Substance | amyloid nucleation score |
| --- | --- |
| CFFPVSPFFIIRGKIQIFYL | -2.51 ± 2.7 |
| CFLETMDFGH | -0.472 ± 1.2 |
| CFNVSVSGEDSFLFGYGWHI | 0.159 ± 0.66 |
| CFPFIFRIGFTNNGADSLVK | -0.507 ± 0.63 |
| CFRHR | 0.428 ± 0.5 |
| CFYAA | -0.557 ± 0.56 |
| CFYNKRLCGRPFMLVWQNYS | 0.161 ± 0.56 |
| CGAELRIGGCSGPGGMFQTR | 0.031 ± 0.27 |
| CGEFGR | -0.682 ± 0.52 |
| CGGFRNMRVPVHLVPACRW | 0.334 ± 0.68 |
| CGIDKSDRIMLIKTVQLSVQ | 0.09 ± 0.68 |
| CGITGMATVLNELPKLKHML | 0.202 ± 0.62 |
| CGMVGWTSLPEQNRYPIPST | -0.511 ± 1.1 |
| CGNAWVKAIMW | -0.191 ± 0.66 |
| CGVLKTRIPLCFGVFEWNSL | 0.475 ± 0.72 |
| CGVMDGYLTAK | -0.619 ± 0.32 |
| CGWNFTVIHFSLDSVSHLLY | -0.568 ± 0.66 |
| CGWRQKLVMVETVTGFSLWG | 1.41 ± 0.88 |
| CHHSYCMITPLTVSTARNGW | 0.749 ± 0.35 |
| CICRRVSKTVLSLQANEAPC | -0.561 ± 0.41 |
| CICTRGMGSLSDCYELR | 0.689 ± 0.46 |
| CIFHL | 0.303 ± 0.65 |
| CIFPRCVYLYHSVWVDVVGC | -0.097 ± 0.61 |

Source: the supplement of paper PMC12042874
